According to the Human Domainome abundance scans (Beltran et al. 2025):

B1: Ventral anterior homeobox 1, residues 102 to 157; numbered along this chain, Q5SQQ9 (parent)
chain: RTRTSFTAEQLYRLEMEFQRCQYVVGRERTELARQLNLSETQVKVWFQNRRTKQKK

Variants of: B1
Assay: abundance fitness (aPCA) (normalised: wild type 0, dead -1); higher = more abundant; growth selection in yeast, the domain comes from the species named
Settings: Homo sapiens

Abundance fitness, by site and new letter:
T2: W -0.566 | Q 0.135 | C -1.01 | L -0.406 | R -0.166 | K -0.202 | S -0.074 | Y -0.335 | G 0.013 | D -0.034 | H -0.38 | P -0.098 | F -0.3 | E -0.012 | N 0.271 | M -0.128
S5: Q 0.028 | I -0.177 | K -0.747 | C -0.225 | H -0.224 | D 0.262 | M 0.08 | Y -0.013 | R -0.597 | L -0.179 | E 0.326 | G -0.002 | W -0.189
A8: I -0.363 | L -0.14 | F -0.473 | C -0.212 | S -0.064 | H -0.817 | V -0.154 | P -0.049 | M -0.104 | G -0.205 | W -0.348 | Q -0.301 | Y -0.158 | R -0.332 | N 0.059 | E 0
T4: I -0.193 | M 0.107 | R -0.35 | Q -0.11 | D -0.14 | H -0.49 | C -0.165 | L 0.205 | E 0.169 | N 0.033 | F -0.347 | W -0.095 | S -0.058 | P -0.074 | V -0.092 | K -0.079 | G -0.269 | A -0.188
R1: T -0.465 | E -0.025 | S -0.042 | M 0.083 | G -0.002 | C 0.058 | I 0.024
E9: D -0.135 | F 0.005 | R -0.455 | K -0.453 | W -0.12 | M -0.235 | H -0.509 | V -0.157 | I -0.456 | Q -0.207 | T -0.464 | S -0.408 | Y -0.398 | A -0.244 | N -0.733 | P -0.669 | C -0.299 | L -0.439
L11: P -0.893 | F -0.159 | E 0.308 | Q 0.231 | H 0.005 | N 0.18 | I -0.059 | T -0.149 | Y -0.335 | D 0.022 | W -0.494 | M -0.172 | A -0.075 | R -0.61 | K -0.274 | G -0.254
F6: P -0.337 | E -0.559 | M 0.049 | R -0.71 | V -0.105 | D -0.445 | W -0.052 | Q -0.347 | H -0.283 | T -0.556 | G -0.427 | I -0.089 | A -0.616 | C -0.536 | N -0.43 | L -0.029 | K -0.42 | S -0.729
R3: W 0.054 | K 0.168 | Q 0.084 | Y 0.071 | H 0.229 | M 0.279 | N 0.268 | G 0.223 | I 0.251 | V 0.096 | P 0.164 | D 0.326 | C 0.211 | F 0.209 | L 0.156 | S 0.266 | A 0.002
R13: I 0.092 | A 0.089 | C -0.161 | F -0.29 | K -0.004 | W -0.211 | N -0.283 | S -0.074 | Q 0.163 | V -0.311 | G -0.207 | H -0.066 | T -0.113 | M -0.022 | P -0.849 | E -0.513 | L -0.068
T7: A -0.411 | Y -0.652 | V -0.466 | N -0.105 | M -0.452 | P -0.734 | K -0.589 | I -0.56 | R -0.499 | W -0.925 | F -0.77
